Patent publication US20200079833A1 (AstraZeneca / MedImmune, published 2020)
Starred links: 1 amine or outer side, 2 acyl side, 3 side chain; linkers in the order of their positions; H or OH if unused. Non-standard residues stand in square brackets, D forms with d. Groups on a side chain read outwards from the residue. Primed or numbered codes have the meaning given here. No end group written: not given here. *: point of attachment. Dodecanoyl(12-OPh(4-COOH)) = O=C(O)c1ccc(OCCCCCCCCCCCC(=O)*)cc1; γGlu = O=C(O)[C@H](CCC(=O)[*:2])N[*:1]; αMeF = C[C@](N)(Cc1ccccc1)C(=O)O; αMeK = C[C@](N)(CCCCN)C(=O)O; αMeS = C[C@](N)(CO)C(=O)O; PEG2′ = not defined here; Aib = CC(C)(N)C(=O)O; Ahx = NCCCCCC(=O)O

T1: glucose-dependent insulinotropic peptide (gastric inhibitory polypeptide) receptor (GIPR) (human, UniProt P48546 22-466)
T1 sequence (looked up): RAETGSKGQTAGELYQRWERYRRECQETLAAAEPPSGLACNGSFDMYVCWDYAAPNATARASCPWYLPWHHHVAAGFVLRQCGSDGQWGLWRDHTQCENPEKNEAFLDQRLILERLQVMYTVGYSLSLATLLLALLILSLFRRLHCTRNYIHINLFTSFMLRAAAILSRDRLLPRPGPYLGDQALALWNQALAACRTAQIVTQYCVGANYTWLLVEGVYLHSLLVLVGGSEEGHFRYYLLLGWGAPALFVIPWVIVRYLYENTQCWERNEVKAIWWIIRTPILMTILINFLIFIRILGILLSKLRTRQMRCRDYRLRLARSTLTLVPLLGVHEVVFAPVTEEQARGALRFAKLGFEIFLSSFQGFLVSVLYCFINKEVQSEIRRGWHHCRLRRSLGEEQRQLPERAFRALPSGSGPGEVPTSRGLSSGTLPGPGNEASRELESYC

T2: glucose-dependent insulinotropic peptide (gastric inhibitory polypeptide) receptor (human, UniProt P48546 22-466)
T2 sequence (looked up): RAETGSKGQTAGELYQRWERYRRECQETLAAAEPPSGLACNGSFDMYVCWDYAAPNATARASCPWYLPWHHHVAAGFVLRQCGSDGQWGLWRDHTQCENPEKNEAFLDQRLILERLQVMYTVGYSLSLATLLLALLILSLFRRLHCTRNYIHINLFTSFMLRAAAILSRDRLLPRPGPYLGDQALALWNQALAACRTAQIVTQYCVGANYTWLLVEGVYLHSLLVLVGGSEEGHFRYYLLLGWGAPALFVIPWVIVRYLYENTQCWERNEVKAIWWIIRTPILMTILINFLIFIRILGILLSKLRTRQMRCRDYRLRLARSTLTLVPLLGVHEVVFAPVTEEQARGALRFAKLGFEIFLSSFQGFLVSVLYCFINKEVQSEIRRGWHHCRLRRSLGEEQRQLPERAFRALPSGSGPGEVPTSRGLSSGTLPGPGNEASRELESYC


Key:
Assay in all cases: cell-based or functional assay
[1] = target: T1, glucose-dependent insulinotropic …
glucagon receptor (GCGR) = glucagon receptor (GCGR) (human, UniProt P47871 26-477)
Chain of glucagon receptor (GCGR) (P47871 26-477): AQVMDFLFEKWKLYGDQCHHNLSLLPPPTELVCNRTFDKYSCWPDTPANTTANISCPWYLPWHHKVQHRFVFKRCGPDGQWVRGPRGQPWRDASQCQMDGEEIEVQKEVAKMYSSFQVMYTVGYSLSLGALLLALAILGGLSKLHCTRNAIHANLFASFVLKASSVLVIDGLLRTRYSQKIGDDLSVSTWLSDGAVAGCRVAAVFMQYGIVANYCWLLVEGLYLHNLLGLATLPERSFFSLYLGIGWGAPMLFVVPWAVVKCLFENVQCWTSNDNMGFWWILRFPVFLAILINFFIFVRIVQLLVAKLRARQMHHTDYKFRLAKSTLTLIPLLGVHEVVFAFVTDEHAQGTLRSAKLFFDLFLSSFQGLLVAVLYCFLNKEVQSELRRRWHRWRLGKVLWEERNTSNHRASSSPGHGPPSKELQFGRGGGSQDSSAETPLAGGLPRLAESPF

GLP-1 receptor (GLP-1R) = GLP-1 receptor (GLP-1R) (human, UniProt P43220 24-463)
glucagon receptor = glucagon receptor (human, UniProt P47871 26-477)
Chain of glucagon receptor (P47871 26-477): as above

[2] = target: T2, glucose-dependent insulinotropic …

Binder	cAMP Primary assay EC50 GIP-R [1]	cAMP Primary assay EC50 GIP-R (2nd) [1]	cAMP Primary assay EC50 Gluc-R (glucagon receptor (GCGR))	cAMP Primary assay EC50 Gluc-R (2nd) (glucagon receptor (GCGR))	cAMP Mean pM GLP-1R (GLP-1 receptor (GLP-1R))	cAMP Primary assay EC50 GLP-1R n1 (GLP-1 receptor (GLP-1R))	cAMP Primary assay EC50 GLP-1R n2 (GLP-1 receptor (GLP-1R))	Primary assay EC50 (cAMP), n1 (glucagon receptor)	Primary assay EC50 (cAMP), n2 (glucagon receptor)	Primary assay EC50 (cAMP), n1 [2]	Primary assay EC50 (cAMP), n2 [2]
H[Aib]EGS[αMeF]TSDV[αMeS]S[αMeF]LEGEAAK([PEG2′-PEG2′-Dodecanoyl(12-OPh(4-COOH))])E[αMeF]IA[αMeF]VV[αMeK]GG-NH2 [SEQ ID NO 144]	26 nM	26 nM	26 nM	26 nM	12.6 pM	0.016 nM	0.0096 nM				
H[Aib]EGS[αMeF]TSDV[αMeS]S[αMeF]LEGEAAK([PEG2′-PEG2′-PEG2′-Dodecanoyl(12-OPh(4-COOH))])E[αMeF]IA[αMeF]VV[αMeK]GG-NH2 [SEQ ID NO 145]	25 nM	25 nM	25 nM	25 nM	21 pM	0.027 nM	0.015 nM				
HXEGTFTSDVSSYLEGQAAKEFIAWLVKGR (Aib 2; α-MeSer 8; α-MeSer 11; C-terminal amide) [SEQ ID NO 23]								540 nM	540 nM	540 nM	540 nM
H[Aib]EGS[αMeF]TSDV[αMeS]S[αMeF]LEGEAAK([Ahx-Dodecanoyl(12-OPh(4-COOH))])E[αMeF]IA[αMeF]VV[αMeK]GG-NH2 (N-terminus assumed; SMILES CC[C@H](C)[C@H](NC(=O)[C@](C)(Cc1ccccc1)NC(=O)[C@H](CCC(=O)O)NC(=O)[C@H](CCCCNC(=O)CCCCCNC(=O)CCCCCCCCCCCOc1ccc(C(=O)O)cc1)NC(=O)[C@H](C)NC(=O)[C@H](C)NC(=O)[C@H](CCC(=O)O)NC(=O)CNC(=O)[C@H](CCC(=O)O)NC(=O)[C@H](CC(C)C)NC(=O)[C@](C)(Cc1ccccc1)NC(=O)[C@H](CO)NC(=O)[C@](C)(CO)NC(=O)[C@@H](NC(=O)[C@H](CC(=O)O)NC(=O)[C@H](CO)NC(=O)[C@@H](NC(=O)[C@](C)(Cc1ccccc1)NC(=O)[C@H](CO)NC(=O)CNC(=O)[C@H](CCC(=O)O)NC(=O)C(C)(C)NC(=O)[C@@H](N)Cc1c[nH]cn1)[C@@H](C)O)C(C)C)C(=O)N[C@@H](C)C(=O)N[C@@](C)(Cc1ccccc1)C(=O)N[C@H](C(=O)N[C@H](C(=O)N[C@@](C)(CCCCN)C(=O)NCC(=O)NCC(N)=O)C(C)C)C(C)C) [SEQ ID NO 140]	27 nM	27 nM	27 nM	27 nM	4.9 pM	0.0059 nM	0.0039 nM				
H[Aib]EGS[αMeF]TSDV[αMeS]S[αMeF]LEGEAAK([PEG2′-Dodecanoyl(12-OPh(4-COOH))])E[αMeF]IA[αMeF]VV[αMeK]GG-NH2 [SEQ ID NO 143]	27 nM	27 nM	27 nM	27 nM	8.6 pM	0.012 nM	0.0052 nM				
H[Aib]EGS[αMeF]TSDV[αMeS]S[αMeF]LEGEAAK([γGlu-γGlu-γGlu-Dodecanoyl(12-OPh(4-COOH))])E[αMeF]IA[αMeF]VV[αMeK]GG-NH2 (N-terminus assumed; SMILES CC[C@H](C)[C@H](NC(=O)[C@](C)(Cc1ccccc1)NC(=O)[C@H](CCC(=O)O)NC(=O)[C@H](CCCCNC(=O)CC[C@H](NC(=O)CC[C@H](NC(=O)CC[C@H](NC(=O)CCCCCCCCCCCOc1ccc(C(=O)O)cc1)C(=O)O)C(=O)O)C(=O)O)NC(=O)[C@H](C)NC(=O)[C@H](C)NC(=O)[C@H](CCC(=O)O)NC(=O)CNC(=O)[C@H](CCC(=O)O)NC(=O)[C@H](CC(C)C)NC(=O)[C@](C)(Cc1ccccc1)NC(=O)[C@H](CO)NC(=O)[C@](C)(CO)NC(=O)[C@@H](NC(=O)[C@H](CC(=O)O)NC(=O)[C@H](CO)NC(=O)[C@@H](NC(=O)[C@](C)(Cc1ccccc1)NC(=O)[C@H](CO)NC(=O)CNC(=O)[C@H](CCC(=O)O)NC(=O)C(C)(C)NC(=O)[C@@H](N)Cc1c[nH]cn1)[C@@H](C)O)C(C)C)C(=O)N[C@@H](C)C(=O)N[C@@](C)(Cc1ccccc1)C(=O)N[C@H](C(=O)N[C@H](C(=O)N[C@@](C)(CCCCN)C(=O)NCC(=O)NCC(N)=O)C(C)C)C(C)C) [SEQ ID NO 139]	26 nM	26 nM	26 nM	26 nM	25.5 pM	0.029 nM	0.022 nM				
H[Aib]EGS[αMeF]TSDV[αMeS]S[αMeF]LEGEAAK([Ahx-Ahx-Ahx-Dodecanoyl(12-OPh(4-COOH))])E[αMeF]IA[αMeF]VV[αMeK]GG-NH2 (N-terminus assumed; SMILES CC[C@H](C)[C@H](NC(=O)[C@](C)(Cc1ccccc1)NC(=O)[C@H](CCC(=O)O)NC(=O)[C@H](CCCCNC(=O)CCCCCNC(=O)CCCCCNC(=O)CCCCCNC(=O)CCCCCCCCCCCOc1ccc(C(=O)O)cc1)NC(=O)[C@H](C)NC(=O)[C@H](C)NC(=O)[C@H](CCC(=O)O)NC(=O)CNC(=O)[C@H](CCC(=O)O)NC(=O)[C@H](CC(C)C)NC(=O)[C@](C)(Cc1ccccc1)NC(=O)[C@H](CO)NC(=O)[C@](C)(CO)NC(=O)[C@@H](NC(=O)[C@H](CC(=O)O)NC(=O)[C@H](CO)NC(=O)[C@@H](NC(=O)[C@](C)(Cc1ccccc1)NC(=O)[C@H](CO)NC(=O)CNC(=O)[C@H](CCC(=O)O)NC(=O)C(C)(C)NC(=O)[C@@H](N)Cc1c[nH]cn1)[C@@H](C)O)C(C)C)C(=O)N[C@@H](C)C(=O)N[C@@](C)(Cc1ccccc1)C(=O)N[C@H](C(=O)N[C@H](C(=O)N[C@@](C)(CCCCN)C(=O)NCC(=O)NCC(N)=O)C(C)C)C(C)C) [SEQ ID NO 142]	26 nM	26 nM	26 nM	26 nM	10.1 pM	0.012 nM	0.0079 nM				
HXEGTFTSDVSSYLEGQAAKEFIAWLVKGR (Aib 2; α-MeSer 8; C-terminal amide) [SEQ ID NO 19]								130 nM	130 nM	130 nM	130 nM
H[Aib]EGS[αMeF]TSDV[αMeS]S[αMeF]LEGEAAK([Ahx-Ahx-Dodecanoyl(12-OPh(4-COOH))])E[αMeF]IA[αMeF]VV[αMeK]GG-NH2 (N-terminus assumed; SMILES CC[C@H](C)[C@H](NC(=O)[C@](C)(Cc1ccccc1)NC(=O)[C@H](CCC(=O)O)NC(=O)[C@H](CCCCNC(=O)CCCCCNC(=O)CCCCCNC(=O)CCCCCCCCCCCOc1ccc(C(=O)O)cc1)NC(=O)[C@H](C)NC(=O)[C@H](C)NC(=O)[C@H](CCC(=O)O)NC(=O)CNC(=O)[C@H](CCC(=O)O)NC(=O)[C@H](CC(C)C)NC(=O)[C@](C)(Cc1ccccc1)NC(=O)[C@H](CO)NC(=O)[C@](C)(CO)NC(=O)[C@@H](NC(=O)[C@H](CC(=O)O)NC(=O)[C@H](CO)NC(=O)[C@@H](NC(=O)[C@](C)(Cc1ccccc1)NC(=O)[C@H](CO)NC(=O)CNC(=O)[C@H](CCC(=O)O)NC(=O)C(C)(C)NC(=O)[C@@H](N)Cc1c[nH]cn1)[C@@H](C)O)C(C)C)C(=O)N[C@@H](C)C(=O)N[C@@](C)(Cc1ccccc1)C(=O)N[C@H](C(=O)N[C@H](C(=O)N[C@@](C)(CCCCN)C(=O)NCC(=O)NCC(N)=O)C(C)C)C(C)C) [SEQ ID NO 141]	27 nM	27 nM	27 nM	27 nM	6.9 pM	0.0087 nM	0.005 nM				
HXEGTFTSDVSSYLEGQAAKEFIAWLVKGR (Aib 2; α-MeSer 11; C-terminal amide) [SEQ ID NO 21]								340 nM	340 nM	340 nM	340 nM
